B1: ELF3 (parent)
chain: RLVYKFGKNSSGWKEEEVLQSRN
B2: MMP1 (parent)
chain: FVRGDHRDNSPFDGPGGNLAHAFQ

Variants of: B1
Assay: protein stability index of a GFP-peptide fusion (GPS, HEK-293T) (PSI 1-6); higher = more stable
Details: c terminus: native
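Also: lentivirally expressed fusions sorted by FACS into six bins by GFP to DsRed ratio, PSI derived from sequencing read proportions per bin multiplied by bin number.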

Row | Variant | protein stability index
1 | PLVYKFGKNSSGWKEEEVLQSRN [R1P] | 3.7
2 | NLVYKFGKNSSGWKEEEVLQSRN [R1N] | 3
3 | GLVYKFGKNSSGWKEEEVLQSRN [R1G] | 2.87
4 | SLVYKFGKNSSGWKEEEVLQSRN [R1S] | 1.69
5 | ALVYKFGKNSSGWKEEEVLQSRN [R1A] | 2.54
6 | VLVYKFGKNSSGWKEEEVLQSRN [R1V] | 1.24
7 | HLVYKFGKNSSGWKEEEVLQSRN [R1H] | 2.72
8 | TLVYKFGKNSSGWKEEEVLQSRN [R1T] | 2.18
9 | FLVYKFGKNSSGWKEEEVLQSRN [R1F] | 2.22
10 | QLVYKFGKNSSGWKEEEVLQSRN [R1Q] | 2.67
11 | YLVYKFGKNSSGWKEEEVLQSRN [R1Y] | 1.69
12 | ILVYKFGKNSSGWKEEEVLQSRN [R1I] | 1.62
13 | MLVYKFGKNSSGWKEEEVLQSRN [R1M] | 2.4
14 | LLVYKFGKNSSGWKEEEVLQSRN [R1L] | 1.83
15 | ELVYKFGKNSSGWKEEEVLQSRN [R1E] | 3.17
16 | CLVYKFGKNSSGWKEEEVLQSRN [R1C] | 2.32
17 | KLVYKFGKNSSGWKEEEVLQSRN [R1K] | 2.55
18 | RKVYKFGKNSSGWKEEEVLQSRN [L2K] | 2.31
19 | RIVYKFGKNSSGWKEEEVLQSRN [L2I] | 2.45
20 | RGVYKFGKNSSGWKEEEVLQSRN [L2G] | 2.78
21 | RHVYKFGKNSSGWKEEEVLQSRN [L2H] | 3.38
22 | REVYKFGKNSSGWKEEEVLQSRN [L2E] | 4.2
23 | RFVYKFGKNSSGWKEEEVLQSRN [L2F] | 2.79
24 | RCVYKFGKNSSGWKEEEVLQSRN [L2C] | 2.29
25 | RDVYKFGKNSSGWKEEEVLQSRN [L2D] | 4.22
26 | RAVYKFGKNSSGWKEEEVLQSRN [L2A] | 3.2

Variants of: B2
Assay: as above
Details: c terminus: a fixed tail appended

Row | Variant | protein stability index
27 | FVRGDHRDNSPFDGPGGNLAHARQ [F23R] | 2.03
28 | FVRGDHRDNSPFDGPGGNLAHALQ [F23L] | 1.89
29 | FVRGDHRDNSPFDGPGGNLAHATQ [F23T] | 1.56
30 | FVRGDHRDNSPFDGPGGNLAHAVQ [F23V] | 1.99
31 | FVRGDHRDNSPFDGPGGNLAHASQ [F23S] | 1.88
32 | FVRGDHRDNSPFDGPGGNLAHAPQ [F23P] | 2.63
33 | FVRGDHRDNSPFDGPGGNLAHAQQ [F23Q] | 2.11
34 | FVRGDHRDNSPFDGPGGNLAHANQ [F23N] | 1.73
35 | FVRGDHRDNSPFDGPGGNLAHAIQ [F23I] | 2.33
36 | FVRGDHRDNSPFDGPGGNLAHAAQ [F23A] | 1.78
37 | FVRGDHRDNSPFDGPGGNLAHAMQ [F23M] | 2.25
38 | FVRGDHRDNSPFDGPGGNLAHAEQ [F23E] | 2.38
39 | FVRGDHRDNSPFDGPGGNLAHAYQ [F23Y] | 2.12
40 | FVRGDHRDNSPFDGPGGNLAHACQ [F23C] | 1.38
41 | FVRGDHRDNSPFDGPGGNLAHAKQ [F23K] | 2.45
42 | FVRGDHRDNSPFDGPGGNLAHAHQ [F23H] | 2.08
43 | FVRGDHRDNSPFDGPGGNLAHAWQ [F23W] | 2.74
44 | FVRGDHRDNSPFDGPGGNLAHAGQ [F23G] | 2.12
45 | FVRGDHRDNSPFDGPGGNLAHADQ [F23D] | 1.9
46 | FVRGDHRDNSPFDGPGGNLAGAFQ [H21G] | 1.81
47 | FVRGDHRDNSPFDGPGGNLAIAFQ [H21I] | 2.7
48 | FVRGDHRDNSPFDGPGGNLATAFQ [H21T] | 2.1
49 | FVRGDHRDNSPFDGPGGNLAPAFQ [H21P] | 1.47

Row | Variant | protein stability index
50 | FVRGDHRDNSPFDGPGGNLASAFQ [H21S] | 2.2
51 | FVRGDHRDNSPFDGPGGNLAVAFQ [H21V] | 1.6
52 | FVRGDHRDNSPFDGPGGNLAQAFQ [H21Q] | 1.62
53 | FVRGDHRDNSPFDGPGGNLAFAFQ [H21F] | 2.31
54 | FVRGDHRDNSPFDGPGGNLANAFQ [H21N] | 2.15
55 | FVRGDHRDNSPFDGPGGNLAKAFQ [H21K] | 1.95
56 | FVRGDHRDNSPFDGPGGNLAMAFQ [H21M] | 2.01
57 | FVRGDHRDNSPFDGPGGNLALAFQ [H21L] | 1.57
58 | FVRGDHRDNSPFDGPGGNLAYAFQ [H21Y] | 2.91
59 | FVRGDHRDNSPFDGPGGNLARAFQ [H21R] | 1.33
60 | FVRGDHRDNSPFDGPGGNLAHAFK [Q24K] | 1.6
61 | FVRGDHRDNSPFDGPGGNLAHAFA [Q24A] | 1.88
62 | FVRGDHRDNSPFDGPGGNLAHAFL [Q24L] | 1.93
63 | FVRGDHRDNSPFDGPGGNLAHAFV [Q24V] | 2.39
64 | FVRGDHRDNSPFDGPGGNLAHAFC [Q24C] | 1.72
65 | FVRGDHRDNSPFDGPGGNLAHAFE [Q24E] | 3.81
66 | FVRGDHRDNSPFDGPGGNLAHAFP [Q24P] | 1.97
67 | FVRGDHRDNSPFDGPGGNLAHAFR [Q24R] | 1.63
68 | FVRGDHRDNSPFDGPGGNLAHAFF [Q24F] | 2.78
69 | FVRGDHRDNSPFDGPGGNLAHAFT [Q24T] | 3.41
70 | FVRGDHRDNSPFDGPGGNLAHAFN [Q24N] | 1.62
71 | FVRGDHRDNSPFDGPGGNLAHAFS [Q24S] | 1.02
72 | FVRGDHRDNSPFDGPGGNLAHAFM [Q24M] | 2.73

Row | Variant | protein stability index
73 | FVRGDHRDNSPFDGPGGNLAHAFG [Q24G] | 1.99
74 | FVRGDHRDNSPFDGPGGNLAHAFY [Q24Y] | 3.94
75 | FVRGDHRDNSPFDGPGGNLAHAFD [Q24D] | 2.75
76 | FVRGDHRDNSPFDGPGGNLAHAFH [Q24H] | 1.84
77 | FVRGDHRDNSPFDGPGGNLAHYFQ [A22Y] | 2.34
78 | FVRGDHRDNSPFDGPGGNLAHLFQ [A22L] | 1.74
79 | FVRGDHRDNSPFDGPGGNLAHNFQ [A22N] | 1.75
80 | FVRGDHRDNSPFDGPGGNLAHVFQ [A22V] | 1.53
81 | FVRGDHRDNSPFDGPGGNLAHGFQ [A22G] | 1.58
82 | FVRGDHRDNSPFDGPGGNLAHPFQ [A22P] | 3.37
83 | FVRGDHRDNSPFDGPGGNLAHRFQ [A22R] | 2.58
84 | FVRGDHRDNSPFDGPGGNLAHDFQ [A22D] | 2.44
85 | FVRGDHRDNSPFDGPGGNLAHTFQ [A22T] | 2.31
86 | FVRGDHRDNSPFDGPGGNLAHCFQ [A22C] | 1.98
87 | FVRGDHRDNSPFDGPGGNLAHEFQ [A22E] | 1.38
88 | FVRGDHRDNSPFDGPGGNLAHHFQ [A22H] | 2
89 | FVRGDHRDNSPFDGPGGNLAHIFQ [A22I] | 2.06
90 | FVRGDHRDNSPFDGPGGNLAHSFQ [A22S] | 1.91
91 | FVRGDHRDNSPFDGPGGNLAHKFQ [A22K] | 2.42
92 | FVRGDHRDNSPFDGPGGNLAHMFQ [A22M] | 2.4
93 | FVRGDHRDNSPFDGPGGNLAHWFQ [A22W] | 1.68
94 | FVRGDHRDNSPFDGPGGNLAHQFQ [A22Q] | 1.46
95 | FVRGDHRDNSPFDGPGGNLAHFFQ [A22F] | 2.25
